{"source": "paper PMC1283526", "target": "T1, GST-ELAV (UniProt P16914 76-483)", "T1 sequence": "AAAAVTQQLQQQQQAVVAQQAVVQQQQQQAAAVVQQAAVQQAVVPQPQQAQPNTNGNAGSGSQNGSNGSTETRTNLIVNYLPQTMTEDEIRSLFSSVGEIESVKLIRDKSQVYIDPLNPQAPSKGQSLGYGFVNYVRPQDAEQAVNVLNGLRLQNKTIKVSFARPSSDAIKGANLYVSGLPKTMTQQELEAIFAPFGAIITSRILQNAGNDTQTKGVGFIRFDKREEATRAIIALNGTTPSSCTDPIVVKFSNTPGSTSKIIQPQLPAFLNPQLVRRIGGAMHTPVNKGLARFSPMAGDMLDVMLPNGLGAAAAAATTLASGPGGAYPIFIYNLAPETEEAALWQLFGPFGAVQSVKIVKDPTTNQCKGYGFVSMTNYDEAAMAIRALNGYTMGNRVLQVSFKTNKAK", "assay": "competition", "data": [{"binder": "AUUUUUAUUUGUUAUUUUUU (ssRNA)", "note": "[SSE 20mer]", "values": [{"measurement": "binding result", "value": "binds"}]}]}
